Measured values reported in IntAct's records for PubMed 25107275.

Target: snx9_human SNX9 (UniProt Q9Y5X1)
Sequence (Q9Y5X1 whole entry): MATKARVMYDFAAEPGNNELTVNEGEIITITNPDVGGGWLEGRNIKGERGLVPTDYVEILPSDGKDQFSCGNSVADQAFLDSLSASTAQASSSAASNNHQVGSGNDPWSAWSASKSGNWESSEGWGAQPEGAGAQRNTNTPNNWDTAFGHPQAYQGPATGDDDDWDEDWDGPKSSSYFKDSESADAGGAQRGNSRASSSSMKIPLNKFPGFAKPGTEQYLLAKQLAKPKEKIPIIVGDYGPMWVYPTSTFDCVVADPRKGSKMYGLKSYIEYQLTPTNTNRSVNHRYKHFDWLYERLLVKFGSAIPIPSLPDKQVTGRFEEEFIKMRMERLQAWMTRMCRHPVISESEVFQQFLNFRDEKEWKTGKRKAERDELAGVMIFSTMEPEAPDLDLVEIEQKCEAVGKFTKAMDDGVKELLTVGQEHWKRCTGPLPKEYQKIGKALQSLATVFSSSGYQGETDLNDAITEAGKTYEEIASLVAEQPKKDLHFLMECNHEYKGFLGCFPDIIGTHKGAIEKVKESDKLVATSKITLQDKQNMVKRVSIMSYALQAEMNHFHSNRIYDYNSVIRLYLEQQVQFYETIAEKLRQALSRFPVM

Sequence of Inositol polyphosphate 5-phosphatase OCRL (Homo sapiens), Q01968 P177A;P178A;P181A (Q01968 whole entry P177A/P178A/P181A): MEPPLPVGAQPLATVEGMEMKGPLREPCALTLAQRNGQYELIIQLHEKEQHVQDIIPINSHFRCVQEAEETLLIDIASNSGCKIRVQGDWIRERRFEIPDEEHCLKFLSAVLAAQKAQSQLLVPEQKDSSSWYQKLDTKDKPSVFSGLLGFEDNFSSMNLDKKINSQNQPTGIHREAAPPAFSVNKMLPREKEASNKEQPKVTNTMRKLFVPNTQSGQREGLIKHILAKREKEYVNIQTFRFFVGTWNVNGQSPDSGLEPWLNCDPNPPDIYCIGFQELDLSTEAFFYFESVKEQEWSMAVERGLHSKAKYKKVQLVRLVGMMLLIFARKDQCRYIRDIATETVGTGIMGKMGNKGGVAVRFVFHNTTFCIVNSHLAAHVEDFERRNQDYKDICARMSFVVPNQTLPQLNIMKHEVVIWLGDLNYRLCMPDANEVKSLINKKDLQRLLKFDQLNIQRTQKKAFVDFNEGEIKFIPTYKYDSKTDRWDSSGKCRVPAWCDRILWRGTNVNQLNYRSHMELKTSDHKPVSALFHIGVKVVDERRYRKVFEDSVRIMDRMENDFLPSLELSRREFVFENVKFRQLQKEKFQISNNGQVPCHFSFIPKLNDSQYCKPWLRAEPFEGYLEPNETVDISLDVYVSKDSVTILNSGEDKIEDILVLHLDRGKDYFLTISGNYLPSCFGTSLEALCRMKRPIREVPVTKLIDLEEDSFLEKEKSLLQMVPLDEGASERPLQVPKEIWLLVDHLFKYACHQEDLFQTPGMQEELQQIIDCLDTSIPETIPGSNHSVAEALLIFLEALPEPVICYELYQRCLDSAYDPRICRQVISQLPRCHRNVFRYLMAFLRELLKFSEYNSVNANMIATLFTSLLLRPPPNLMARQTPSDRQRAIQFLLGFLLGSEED

effect of a mutation on the interaction: disrupting interaction
Substance: Inositol polyphosphate 5-phosphatase OCRL (Homo sapiens), Q01968 P177A;P178A;P181A
